According to article PMC10179534, “Maize Transcription Factor ZmHsf28 Positively Regulates Plant Drought Tolerance”:

B1: pZmAAO4 HSE probe (dsDNA)
DNA 1: TCTTAATCTCCTAGAAAAATACGGT
DNA 2: ACCGTATTTTTCTAGGAGATTAAGA
B2: pZmAOS1 HSE probe (dsDNA)
DNA 1: GTCAAGTCGGGTCTAGAAACTCATAGGCA
DNA 2: TGCCTATGAGTTTCTAGACCCGACTTGAC
B3: pZmCAT1 HSE probe (dsDNA)
DNA 1: GAAGATGAGCTTCTAGGACTGTTAGA
DNA 2: TCTAACAGTCCTAGAAGCTCATCTTC
B4: pZmRD21 HSE probe (dsDNA)
DNA 1: TATCGGTTTTTTTAGAAGATATTATGGC
DNA 2: GCCATAATATCTTCTAAAAAAACCGATA
B5: pZmZEP1 HSE probe (dsDNA)
DNA 1: GGGTGTTTTTCTGGAATCATGCA
DNA 2: TGCATGATTCCAGAAAAACACCC

Target: ZmHsf28 (Zea mays, UniProt K7V9Y4 1-267)
Assay: EMSA; Chemiluminescence EMSA kit (Beyotime); buffer, salt, pH and temperature not stated; unlabeled probes as competitors
Conditions: protein: recombinant; tags: His (pET28a, Ni-NTA); chain copies: 3; blunt

Chain of ZmHsf28 (K7V9Y4 entry or part of it): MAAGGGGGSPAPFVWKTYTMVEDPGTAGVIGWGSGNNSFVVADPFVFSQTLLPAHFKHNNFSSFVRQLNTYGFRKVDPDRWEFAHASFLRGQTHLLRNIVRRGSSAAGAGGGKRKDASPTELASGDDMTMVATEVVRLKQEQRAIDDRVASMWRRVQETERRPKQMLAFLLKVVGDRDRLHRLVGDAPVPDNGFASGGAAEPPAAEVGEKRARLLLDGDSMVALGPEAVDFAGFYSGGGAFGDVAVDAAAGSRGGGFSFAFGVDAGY

Binding result, binds:
B1
B2
B3
B4
B5
